Assay results published in patent publication US8026218 (UNIVERSITY OF ARIZONA, dated 2011).
Bridge positions count the residues as written; N and C are the ends. Square brackets hold non-standard residues; d marks the D form. Ends that are not written are not given here. * marks the point of attachment. NH(3,5-(CF3)2-benzyl) = FC(F)(F)c1cc(CN*)cc(C(F)(F)F)c1; OBzl(3,5-(CF3)2) = FC(F)(F)c1cc(CO*)cc(C(F)(F)F)c1; Dmt = Cc1cc(O)cc(C)c1C[C@H](N)C(=O)O; Nle = CCCC[C@H](N)C(=O)O

B1: Tyr[DCysGlyPheNleProCys]TrpNHBn(CF3)2 (TY035) (peptide)
peptide: Y[dC]GF[Nle]PCW-{NH(3,5-(CF3)2-benzyl)}
modifications: disulfide 2-7
notes: also called [D-Cys2, Cys7]TY027
B2: MetProLeuTrpOBn(CF3)2 (TY036) (peptide)
peptide: MPLW-{OBzl(3,5-(CF3)2)}
B3: Tyr[DPenGlyPhePen]ProLeuTrpNHBn(CF3)2 (TY046) (peptide)
peptide: YXGFXPLW
modifications: D-Pen (D-penicillamine) at 2 (X); Pen (L-penicillamine) at 5 (X); disulfide 2-5 (cyclic); C-terminal NH-Bn(CF3)2 amide
B4: Tyr[DPenGlyPheDPen]ProLeuTrpNHBn(CF3)2 (TY049) (peptide)
peptide: YXGFXPLW
modifications: D-Pen at 2 and 5 (X); disulfide 2-5 (cyclic); C-terminal NH-Bn(CF3)2 amide
B5: TyrDAlaGlyPheMet(O)ProLeuTrpOBn(CF3)2 (TY023) (peptide)
peptide: YAGFMPLW
modifications: D-Ala at 2; Met(O) (oxidized methionine) at 5; C-terminal O-3,5-Bn(CF3)2 ester
B6: DmtDAlaGlyPheMetProLeuTrpOBn(CF3)2 (TY033) (peptide)
peptide: [Dmt][dA]GFMPLW-{OBzl(3,5-(CF3)2)}
B7: TyrDAlaGlyPheNleProLeuTrpOBn(CF3)2 (TY018) (peptide)
peptide: YAGFXPLW
modifications: D-Ala at 2; Nle (norleucine) at 5 (X); C-terminal O-3,5-Bn(CF3)2 ester

molecular target: T1, rat µ opioid receptor (rat, UniProt P33535 1-398); experiment: radioligand competition vs [3H]DAMGO, membranes of rMOR cells
T1 construct: whole, on cells; Used as crude membrane preparations of the transfected cells; also called rMOR; MOR
T1 sequence (P33535 whole entry): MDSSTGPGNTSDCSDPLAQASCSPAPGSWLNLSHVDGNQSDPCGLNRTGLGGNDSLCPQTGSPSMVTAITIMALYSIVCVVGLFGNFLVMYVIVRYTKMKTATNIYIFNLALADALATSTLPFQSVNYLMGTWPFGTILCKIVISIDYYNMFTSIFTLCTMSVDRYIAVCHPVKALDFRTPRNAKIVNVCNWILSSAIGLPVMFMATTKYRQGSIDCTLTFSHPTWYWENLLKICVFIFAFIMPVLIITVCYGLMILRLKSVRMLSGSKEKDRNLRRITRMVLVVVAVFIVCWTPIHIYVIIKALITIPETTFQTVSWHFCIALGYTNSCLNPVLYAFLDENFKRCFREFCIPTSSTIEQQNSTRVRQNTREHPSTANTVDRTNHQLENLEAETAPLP

Row | Binder | Ki
1 | B1 | 79.2 nM
2 | B2 | 4550 nM
3 | B3 | 2330 nM
4 | B4 | 2050 nM

molecular target: T2, human NK1 receptor (human, UniProt P25103 1-407); experiment: radioligand competition vs [3H]substance P, membranes of hNK1 CHO cells
T2 construct: whole, on cells; Used as membrane preparations of transfected CHO cells; also called hNK1; human neurokinin-1 receptor
T2 sequence (P25103 whole entry): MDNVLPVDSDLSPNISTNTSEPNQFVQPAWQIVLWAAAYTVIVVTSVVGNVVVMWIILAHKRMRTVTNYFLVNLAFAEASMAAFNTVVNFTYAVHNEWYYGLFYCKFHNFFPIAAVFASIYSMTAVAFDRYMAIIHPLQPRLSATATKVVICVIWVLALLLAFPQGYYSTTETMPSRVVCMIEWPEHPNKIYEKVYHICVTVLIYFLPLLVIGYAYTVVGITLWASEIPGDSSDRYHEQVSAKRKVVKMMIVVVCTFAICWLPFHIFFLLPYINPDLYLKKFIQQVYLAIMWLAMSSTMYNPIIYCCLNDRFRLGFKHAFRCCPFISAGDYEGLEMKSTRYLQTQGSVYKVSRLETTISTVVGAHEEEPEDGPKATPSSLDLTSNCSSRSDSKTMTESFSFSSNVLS

Row | Binder | Ki
5 | B5 | 0.00015 nM
6 | B6 | 1.2 nM
7 | B7 | 0.14 nM
8 | B1 | 0.091 nM
9 | B3 | 0.0053 nM
10 | B4 | 0.18 nM

molecular target: guinea pig NK1 receptor (guinea pig, UniProt P30547 1-407); experiment: cell-based or functional assay
Sequence (P30547 whole entry): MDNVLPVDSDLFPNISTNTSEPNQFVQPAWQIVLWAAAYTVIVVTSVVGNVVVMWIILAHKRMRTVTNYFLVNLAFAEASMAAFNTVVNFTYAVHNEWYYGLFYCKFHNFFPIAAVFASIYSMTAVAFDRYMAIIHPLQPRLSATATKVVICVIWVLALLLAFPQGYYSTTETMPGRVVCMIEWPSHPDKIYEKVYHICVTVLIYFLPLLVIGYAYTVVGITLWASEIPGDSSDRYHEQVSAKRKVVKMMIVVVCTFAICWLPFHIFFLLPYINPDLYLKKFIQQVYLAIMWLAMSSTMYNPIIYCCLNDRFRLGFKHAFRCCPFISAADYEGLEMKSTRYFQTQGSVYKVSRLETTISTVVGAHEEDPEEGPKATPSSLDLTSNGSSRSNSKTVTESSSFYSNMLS

Row | Binder | GPI/LMMP SP antagonist Ke
11 | B5 | 7.8 nM
12 | B6 | 24.5 nM
13 | B7 | 7.93 nM
14 | B1 | 2.2 nM

molecular target: T1, rat µ opioid receptor; experiment: cell-based or functional assay

Row | Binder | GTP binding rMOR EC50 | GTP binding rMOR Emax
15 | B1 | 36 nM | 39%
16 | B4 |  | 25%

molecular target: µ opioid receptor of the guinea pig isolated ileum (guinea pig, UniProt P97266 1-98); experiment: cell-based or functional assay
Sequence (P97266 whole entry): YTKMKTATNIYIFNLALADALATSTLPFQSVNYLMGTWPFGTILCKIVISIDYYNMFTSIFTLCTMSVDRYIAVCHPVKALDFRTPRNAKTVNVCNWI

Row | Binder | GPI/LMMP opioid(mu) agonist IC50
17 | B5 | 154 nM
18 | B6 | 100 nM
19 | B7 | 372 nM
20 | B1 | 1010 nM

molecular target: T3, human δ opioid receptor (human, UniProt P41143 1-372); experiment: cell-based or functional assay
T3 sequence (P41143 whole entry, stated change not applied): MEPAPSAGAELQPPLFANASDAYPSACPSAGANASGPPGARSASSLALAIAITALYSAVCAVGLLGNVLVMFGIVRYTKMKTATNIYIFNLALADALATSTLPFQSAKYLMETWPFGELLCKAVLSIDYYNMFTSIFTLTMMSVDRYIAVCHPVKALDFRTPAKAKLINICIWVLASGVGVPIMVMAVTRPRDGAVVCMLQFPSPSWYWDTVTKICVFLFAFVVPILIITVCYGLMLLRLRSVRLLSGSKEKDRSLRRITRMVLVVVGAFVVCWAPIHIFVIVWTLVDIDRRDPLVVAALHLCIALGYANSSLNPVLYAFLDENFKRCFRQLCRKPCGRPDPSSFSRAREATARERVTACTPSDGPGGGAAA

Row | Binder | GTP binding hDOR Emax | GTP binding hDOR EC50
21 | B5 | 52.8% | 
22 | B6 | 200% | 0.73 nM
23 | B7 | 131% | 4 nM
24 | B1 | 11% | 0.02 nM
25 | B3 | 15% | 17.2 nM

molecular target: T3, human δ opioid receptor; experiment: radioligand competition vs [3H]DPDPE, membranes of hDOR cells

Row | Binder | Ki
26 | B5 | 5.08 nM
27 | B6 | 0.22 nM
28 | B7 | 1.8 nM
29 | B1 | 1.29 nM
30 | B2 | 1280 nM
31 | B3 | 1.7 nM

molecular target: T4, rat NK1 receptor (rat, UniProt P14600 1-407); experiment: radioligand competition vs [3H]substance P, membranes of rNK1 CHO cells
T4 construct: whole, on cells; Used as membrane preparations of transfected CHO cells; also called rNK1; rat neurokinin-1 receptor
T4 sequence (P14600 whole entry): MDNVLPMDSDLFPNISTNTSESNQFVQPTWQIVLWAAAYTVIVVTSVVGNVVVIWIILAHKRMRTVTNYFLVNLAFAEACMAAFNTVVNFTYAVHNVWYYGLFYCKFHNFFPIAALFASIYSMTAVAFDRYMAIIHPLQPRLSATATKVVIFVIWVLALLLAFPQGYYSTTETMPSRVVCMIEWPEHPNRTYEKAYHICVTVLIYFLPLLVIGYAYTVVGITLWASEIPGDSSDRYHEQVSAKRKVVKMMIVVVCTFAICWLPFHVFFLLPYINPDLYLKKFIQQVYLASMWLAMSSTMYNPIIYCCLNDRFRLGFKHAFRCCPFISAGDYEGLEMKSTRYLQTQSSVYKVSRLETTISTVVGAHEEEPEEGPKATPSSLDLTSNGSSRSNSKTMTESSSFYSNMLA

Row | Binder | Ki
32 | B5 | 0.2 nM
33 | B6 | 0.96 nM
34 | B2 | 0.99 nM
35 | B4 | 4.54 nM
